# In the supplement of paper PMC10065799, “High-throughput profiling of sequence recognition by tyrosine kinases and SH2 domains using bacterial peptide display” (eLife, 2023):
# Columns and labels:
# [1] = biological target: c-Src SH2; experiment: SH2 binding enrichment of the phosphorylated peptide, bacterial display (enrichment ratio); higher = better substrate or ligand; peptides without Tyr show the background
# [2] = biological target: Grb2 SH2 (UniProt P62993); experiment: as above
# [3] = biological target: SHP2-C SH2; experiment: as above
# [4] = biological target: MERTK (UniProt Q12866); experiment: phosphorylation enrichment, bacterial display (enrichment ratio); higher = better substrate or ligand; peptides without Tyr show the background
# [5] = test system: Fer (mouse); experiment: as above
# [6] = biological target: EPHB2 (UniProt P29323); experiment: as above
# [7] = biological target: Fes (UniProt P07332); experiment: as above
# [8] = biological target: Jak2 (UniProt O60674); experiment: as above
# [9] = biological target: Hck (UniProt P08631); experiment: as above
# [10] = biological target: EPHB1 (UniProt P54762); experiment: as above
# [11] = biological target: FGFR1 (UniProt P11362); experiment: as above
# [12] = test system: AncSZ; experiment: as above
# [13] = biological target: Fyn (UniProt P06241); experiment: as above
# [14] = test system: c-Src; experiment: as above
# [15] = test system: c-Abl (mouse); experiment: as above
# [16] = biological target: FGFR3 (UniProt P22607); experiment: as above
# 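Wherever SH2 binding enrichment of the phosphorylated peptide, bacterial display is given: peptide library displayed on the E. coli surface as eCPX fusions, selected cells deep-sequenced, score is each peptide's frequency after selection divided by its frequency in the input.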
# 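Wherever phosphorylation enrichment, bacterial display is given: 11-residue human phosphosite peptides and single-mutation variants displayed on the E. coli surface, counted by deep sequencing, each peptide's frequency after selection divided by its frequency in the unselected input library; frequency after pTyr selection over input frequency; kinase dosed for 20-30% of maximal phosphorylation in three min.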
# Sequence of MERTK (Q12866 whole entry, looked up): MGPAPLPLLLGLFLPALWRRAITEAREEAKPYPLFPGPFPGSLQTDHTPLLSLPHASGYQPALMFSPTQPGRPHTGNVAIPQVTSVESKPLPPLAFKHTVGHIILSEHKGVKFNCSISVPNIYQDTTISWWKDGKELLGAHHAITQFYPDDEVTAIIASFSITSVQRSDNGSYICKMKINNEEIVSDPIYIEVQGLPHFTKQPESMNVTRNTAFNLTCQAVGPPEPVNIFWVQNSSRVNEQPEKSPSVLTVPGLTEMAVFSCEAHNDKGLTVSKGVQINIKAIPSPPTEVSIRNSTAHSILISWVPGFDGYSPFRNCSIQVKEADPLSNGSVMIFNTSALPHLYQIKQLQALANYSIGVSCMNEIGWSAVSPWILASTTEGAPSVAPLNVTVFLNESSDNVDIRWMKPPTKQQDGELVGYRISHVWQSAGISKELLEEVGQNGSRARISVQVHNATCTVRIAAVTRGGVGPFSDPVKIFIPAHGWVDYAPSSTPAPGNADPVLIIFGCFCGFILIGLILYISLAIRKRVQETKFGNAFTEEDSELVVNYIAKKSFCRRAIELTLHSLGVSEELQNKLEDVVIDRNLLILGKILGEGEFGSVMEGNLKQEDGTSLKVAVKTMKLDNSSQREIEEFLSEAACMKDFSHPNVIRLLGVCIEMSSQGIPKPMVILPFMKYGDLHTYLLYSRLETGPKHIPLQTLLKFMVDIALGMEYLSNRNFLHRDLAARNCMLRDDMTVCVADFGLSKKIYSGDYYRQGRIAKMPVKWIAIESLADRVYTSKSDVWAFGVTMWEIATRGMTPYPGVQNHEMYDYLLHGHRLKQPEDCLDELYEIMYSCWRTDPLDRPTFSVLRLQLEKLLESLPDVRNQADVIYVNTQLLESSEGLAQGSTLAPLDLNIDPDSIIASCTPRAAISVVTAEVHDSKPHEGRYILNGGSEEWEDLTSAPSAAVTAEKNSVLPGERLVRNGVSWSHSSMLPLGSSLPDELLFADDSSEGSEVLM
# Sequence of FGFR3 (P22607 whole entry, looked up, the tested form may be a part): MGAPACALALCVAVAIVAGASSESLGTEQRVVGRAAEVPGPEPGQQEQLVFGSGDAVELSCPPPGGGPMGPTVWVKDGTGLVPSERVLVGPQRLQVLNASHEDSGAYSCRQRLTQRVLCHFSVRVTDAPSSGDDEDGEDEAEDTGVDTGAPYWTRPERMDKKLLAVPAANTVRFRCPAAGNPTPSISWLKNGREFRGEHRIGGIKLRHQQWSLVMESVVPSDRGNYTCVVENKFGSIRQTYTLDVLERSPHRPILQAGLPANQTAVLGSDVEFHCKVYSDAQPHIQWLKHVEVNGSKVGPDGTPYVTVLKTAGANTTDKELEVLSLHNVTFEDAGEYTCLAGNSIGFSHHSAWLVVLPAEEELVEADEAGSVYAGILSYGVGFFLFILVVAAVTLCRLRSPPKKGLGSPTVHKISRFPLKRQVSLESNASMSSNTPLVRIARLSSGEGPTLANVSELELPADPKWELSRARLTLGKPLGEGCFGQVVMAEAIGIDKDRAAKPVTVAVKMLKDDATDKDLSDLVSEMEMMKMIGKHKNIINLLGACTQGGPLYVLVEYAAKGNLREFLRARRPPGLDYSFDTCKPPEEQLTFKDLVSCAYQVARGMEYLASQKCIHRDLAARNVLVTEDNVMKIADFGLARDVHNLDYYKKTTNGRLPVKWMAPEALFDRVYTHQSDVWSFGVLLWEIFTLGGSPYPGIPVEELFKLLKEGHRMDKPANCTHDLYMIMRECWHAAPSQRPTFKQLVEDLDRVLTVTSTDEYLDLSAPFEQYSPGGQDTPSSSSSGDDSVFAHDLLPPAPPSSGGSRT
# Sequence of Jak2 (O60674 whole entry, looked up): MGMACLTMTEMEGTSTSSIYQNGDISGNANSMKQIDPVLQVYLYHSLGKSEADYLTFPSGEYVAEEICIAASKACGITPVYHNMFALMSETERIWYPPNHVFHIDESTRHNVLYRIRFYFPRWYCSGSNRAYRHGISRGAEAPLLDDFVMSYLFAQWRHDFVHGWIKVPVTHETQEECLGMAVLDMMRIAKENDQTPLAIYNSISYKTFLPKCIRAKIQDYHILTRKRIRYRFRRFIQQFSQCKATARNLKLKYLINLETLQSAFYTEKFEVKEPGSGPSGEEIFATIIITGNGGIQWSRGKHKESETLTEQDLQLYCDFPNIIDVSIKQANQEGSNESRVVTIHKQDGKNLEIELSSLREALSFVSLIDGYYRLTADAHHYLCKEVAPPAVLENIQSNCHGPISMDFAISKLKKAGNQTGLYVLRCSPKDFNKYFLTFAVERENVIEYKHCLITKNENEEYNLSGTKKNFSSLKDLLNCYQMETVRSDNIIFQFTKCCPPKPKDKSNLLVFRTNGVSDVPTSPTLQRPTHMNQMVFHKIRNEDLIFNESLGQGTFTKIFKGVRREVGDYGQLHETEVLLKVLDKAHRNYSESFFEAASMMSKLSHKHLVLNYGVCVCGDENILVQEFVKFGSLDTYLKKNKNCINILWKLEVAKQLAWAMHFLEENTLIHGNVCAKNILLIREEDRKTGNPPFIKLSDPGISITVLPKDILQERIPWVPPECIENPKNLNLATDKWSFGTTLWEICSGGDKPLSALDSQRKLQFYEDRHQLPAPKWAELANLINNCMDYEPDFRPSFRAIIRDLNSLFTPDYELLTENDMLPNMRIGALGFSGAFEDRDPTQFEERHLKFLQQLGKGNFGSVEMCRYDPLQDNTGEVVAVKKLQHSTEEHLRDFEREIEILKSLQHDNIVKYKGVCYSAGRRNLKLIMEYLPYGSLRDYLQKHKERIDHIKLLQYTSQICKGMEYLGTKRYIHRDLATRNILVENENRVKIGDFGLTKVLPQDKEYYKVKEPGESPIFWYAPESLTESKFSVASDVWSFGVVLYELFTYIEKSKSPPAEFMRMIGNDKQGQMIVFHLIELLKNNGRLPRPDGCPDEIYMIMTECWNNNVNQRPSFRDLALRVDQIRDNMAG
# Sequence of EPHB1 (P54762 whole entry, looked up): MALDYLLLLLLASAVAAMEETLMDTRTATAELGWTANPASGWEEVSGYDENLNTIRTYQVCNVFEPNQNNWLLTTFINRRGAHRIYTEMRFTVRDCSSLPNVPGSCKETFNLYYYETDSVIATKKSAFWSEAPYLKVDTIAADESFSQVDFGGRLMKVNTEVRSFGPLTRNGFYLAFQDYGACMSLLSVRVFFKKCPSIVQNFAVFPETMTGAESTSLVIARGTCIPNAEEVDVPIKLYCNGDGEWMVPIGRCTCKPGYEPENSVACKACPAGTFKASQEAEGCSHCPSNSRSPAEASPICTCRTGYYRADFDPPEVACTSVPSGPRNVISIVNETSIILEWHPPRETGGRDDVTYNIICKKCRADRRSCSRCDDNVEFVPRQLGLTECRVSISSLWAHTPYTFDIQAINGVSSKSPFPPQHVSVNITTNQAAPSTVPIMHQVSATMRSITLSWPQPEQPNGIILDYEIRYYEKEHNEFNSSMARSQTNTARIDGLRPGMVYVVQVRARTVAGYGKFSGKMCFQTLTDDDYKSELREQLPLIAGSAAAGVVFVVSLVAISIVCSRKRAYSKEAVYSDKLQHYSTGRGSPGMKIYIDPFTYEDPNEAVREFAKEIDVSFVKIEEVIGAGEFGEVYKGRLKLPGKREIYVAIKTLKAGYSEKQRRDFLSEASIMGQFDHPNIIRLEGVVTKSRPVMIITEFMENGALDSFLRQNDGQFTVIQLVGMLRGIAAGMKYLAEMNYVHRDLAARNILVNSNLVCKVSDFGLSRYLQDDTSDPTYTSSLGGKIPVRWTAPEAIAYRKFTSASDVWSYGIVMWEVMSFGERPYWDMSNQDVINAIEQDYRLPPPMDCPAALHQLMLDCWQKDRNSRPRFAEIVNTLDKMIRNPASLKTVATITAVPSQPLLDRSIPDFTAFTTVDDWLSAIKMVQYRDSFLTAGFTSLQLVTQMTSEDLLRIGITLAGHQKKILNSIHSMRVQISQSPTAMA
# Sequence of EPHB2 (P29323 whole entry, looked up): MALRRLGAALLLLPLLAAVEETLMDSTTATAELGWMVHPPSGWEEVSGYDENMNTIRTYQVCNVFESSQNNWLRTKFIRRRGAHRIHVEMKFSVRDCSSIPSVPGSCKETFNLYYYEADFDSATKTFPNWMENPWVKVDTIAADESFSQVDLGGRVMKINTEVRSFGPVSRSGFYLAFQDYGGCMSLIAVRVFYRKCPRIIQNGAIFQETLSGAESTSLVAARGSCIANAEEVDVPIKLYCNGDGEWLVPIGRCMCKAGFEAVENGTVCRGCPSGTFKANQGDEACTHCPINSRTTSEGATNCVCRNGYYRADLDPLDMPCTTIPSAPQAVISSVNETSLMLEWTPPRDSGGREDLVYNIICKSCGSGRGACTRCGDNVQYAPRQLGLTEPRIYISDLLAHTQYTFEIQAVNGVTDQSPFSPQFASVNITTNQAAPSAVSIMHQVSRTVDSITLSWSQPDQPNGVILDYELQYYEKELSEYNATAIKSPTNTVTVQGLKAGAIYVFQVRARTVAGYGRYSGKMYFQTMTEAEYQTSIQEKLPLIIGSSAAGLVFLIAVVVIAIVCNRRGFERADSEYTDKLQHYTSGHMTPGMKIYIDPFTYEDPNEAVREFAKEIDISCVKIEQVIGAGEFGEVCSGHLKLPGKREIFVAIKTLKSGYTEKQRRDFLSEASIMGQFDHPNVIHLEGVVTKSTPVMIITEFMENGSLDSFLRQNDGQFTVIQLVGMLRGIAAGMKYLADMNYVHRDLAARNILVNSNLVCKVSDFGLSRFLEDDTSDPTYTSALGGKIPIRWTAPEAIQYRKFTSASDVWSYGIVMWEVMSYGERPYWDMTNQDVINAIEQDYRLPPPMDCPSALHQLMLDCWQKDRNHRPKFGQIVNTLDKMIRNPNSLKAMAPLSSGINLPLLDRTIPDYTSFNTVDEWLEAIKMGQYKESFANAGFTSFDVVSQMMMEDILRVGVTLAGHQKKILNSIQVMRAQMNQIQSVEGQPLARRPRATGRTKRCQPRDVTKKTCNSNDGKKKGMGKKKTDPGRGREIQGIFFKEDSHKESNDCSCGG
SH2 binding enrichment [1],SH2 binding enrichment [2],SH2 binding enrichment [3],Sequence,phosphorylation enrichment [4],phosphorylation enrichment [5],phosphorylation enrichment [6],phosphorylation enrichment [7],phosphorylation enrichment [8],phosphorylation enrichment [9],phosphorylation enrichment [10],phosphorylation enrichment [11],phosphorylation enrichment [12],phosphorylation enrichment [13],phosphorylation enrichment [14],phosphorylation enrichment [15],phosphorylation enrichment [16]
0.602,0.969,0.489,KAWGIYDCQQP [CYP3A7_Y75_V71A],5.53,3.52,4.21,1.56,1.12,6.67,8.32,0.53,1.73,7.28,4.8,1.12,0.852
0.369,0.84,0.714,LPPGTYPSDFA [UNC5B_Y511],0.424,0.5,0.412,0.96,0.791,0.461,0.482,0.543,0.744,0.451,0.422,0.565,0.595
0.438,0.852,1.05,EAMSDYKKQLR [SPATA18_Y229],0.393,0.405,0.413,0.651,0.563,0.383,0.418,0.378,0.594,0.316,0.452,0.442,0.605
3.58,4.72,0.674,KAPPTYDNVLQ [CYP3A4_Y347_T349N],1.22,1.85,3.6,0.714,0.514,1.68,6.04,0.452,0.606,0.978,0.785,0.511,0.482
1.78,2.09,1.58,SFCFRYRCAAW [SUMF1_Y344_R349W_YF],0.449,0.454,0.465,0.829,0.638,0.442,0.473,0.501,0.933,0.41,0.363,0.45,0.613
0.628,0.902,0.735,ACQSLYGGFVE [MVD_Y164_R161Q],1.14,0.744,1.53,0.945,0.775,8.54,0.719,0.567,0.949,11.1,7.59,0.7,0.665
0.479,0.776,0.436,RDWSHYFKIIE [KRT18_Y129],0.296,0.412,1.08,1.72,1.35,0.57,0.824,0.687,1.46,0.793,0.705,0.823,0.997
0.507,0.961,0.661,EVASVYQSFQP [MAVS_Y92_YF],2.03,5.55,0.846,1.2,1.06,11,0.785,0.604,1.22,13.6,8.85,2.19,0.991
1.89,4.69,4.04,FVIISYVLIIR [OR1D2_Y218],0.527,0.566,0.325,0.733,0.503,0.508,0.561,0.672,0.994,0.517,0.517,0.457,0.727
0.473,0.857,0.966,PLLEFYRDIFT [CDAN1_Y713_YF],0.81,0.732,0.874,2.2,2,0.626,0.95,0.822,1.85,0.669,0.816,1.18,1.33
0.321,0.614,0.484,ITLKGYNLSKS [GNPTAB_Y728],0.367,0.414,0.346,0.686,0.482,0.426,0.342,0.397,0.601,0.355,0.451,0.317,0.402
0.473,1.01,0.929,HLTNQYMQRVA [PABPC4_Y382],0.277,0.446,0.316,0.429,0.406,0.324,0.307,0.402,0.525,0.356,0.351,1.04,0.33
0.638,1.06,0.64,GKVFVYHGSSL [ITGA7_Y458_I457V],0.435,0.476,0.523,1.06,0.674,0.434,0.564,0.514,1.03,0.449,0.349,0.563,0.676
0.425,0.742,0.682,KEELDYLKKNH [KRT14_Y248_A247D],0.419,0.45,0.624,1.1,0.879,0.382,0.554,0.447,1.04,0.355,0.467,0.854,0.666
0.525,0.82,0.762,SQQTFYRVSNM [ABCD1_Y181_YF],0.388,0.39,0.507,0.741,0.546,0.513,0.31,0.433,0.564,0.409,0.408,0.492,0.575
0.394,0.737,0.675,HSDFQYGQRSQ [PKP2_Y168_S169G_YF],0.511,0.78,0.628,1.25,0.727,0.587,0.632,0.495,0.641,0.766,0.682,0.509,0.639
0.421,0.87,0.586,CGTPEYLAPEI [PRKACA_Y205],0.463,0.679,0.757,1.57,1.51,0.633,0.893,0.718,2.65,0.531,0.535,2.42,1.06

SH2 binding enrichment [1],SH2 binding enrichment [2],SH2 binding enrichment [3],Sequence,phosphorylation enrichment [4],phosphorylation enrichment [5],phosphorylation enrichment [6],phosphorylation enrichment [7],phosphorylation enrichment [8],phosphorylation enrichment [9],phosphorylation enrichment [10],phosphorylation enrichment [11],phosphorylation enrichment [12],phosphorylation enrichment [13],phosphorylation enrichment [14],phosphorylation enrichment [15],phosphorylation enrichment [16]
0.373,0.838,0.661,DKWFLYKMRDI [CPS1_Y879],0.311,0.505,0.57,1.36,1.32,0.469,0.671,0.466,1.14,0.444,0.403,0.963,0.77
0.554,0.856,1.03,DEQKKYFNAMK [SCN5A_Y1494_E1489D_YF],0.448,0.437,0.428,0.883,0.952,0.419,0.374,0.592,0.68,0.394,0.548,0.815,0.474
0.581,0.799,0.429,RLLVVYPRTQR [HBB_Y36_W38R],0.658,0.619,0.81,1.28,1.07,0.704,0.457,0.685,1.05,0.785,0.484,0.799,0.525
0.502,0.922,0.821,TESNNYIFTTL [FAM83B_Y637_K640T_YF],0.612,0.722,0.641,1.27,1.11,0.571,0.687,1.02,1.12,0.539,0.537,0.982,0.912
3.92,0.879,1.91,WFPYTYVEEDE [VAV3_Y842_S840Y],0.625,0.899,0.773,1.3,1.08,0.616,1.16,1.56,1.47,0.843,1.3,0.746,1.72
0.472,0.811,0.592,MCVKSYTIHYS [F5_Y2153_Y2149C],0.459,0.636,0.569,1.26,0.942,0.552,0.682,0.513,1.12,0.517,0.45,0.726,0.878
0.504,0.766,0.564,YSMGCYEISLE [HMGCL_Y198_G203E],1.51,1.82,0.907,1.35,1.08,1.23,1.01,0.582,2.01,1.65,2.02,0.806,1.09
0.534,0.994,0.892,SDIEEYVHRIG [DDX3X_Y525],0.384,0.367,0.456,0.972,0.791,0.455,0.473,0.426,0.978,0.429,0.41,0.953,0.567
5.4,0.9,1.91,MAHDRYAAICS [OR8H2_Y123],0.424,0.372,0.444,0.646,0.44,0.48,0.41,0.494,0.547,0.437,0.424,0.396,0.439
0.952,0.714,0.593,LARDMCDKEYY [MET_Y1230_Y1230C],0.84,0.897,1.01,1.89,2.02,0.834,0.853,0.995,1.64,0.902,0.849,1.06,0.828
1.14,0.81,0.441,RSIGEYDVLRA [PRKDC_Y2936_G2941A],0.817,0.446,1.13,1.31,0.703,7.58,0.944,0.772,0.887,1.06,1.17,1.87,0.818
0.902,1.6,1.43,LVFIKYLPEWT [PSEN1_Y240],0.769,0.744,0.734,1.92,1.97,0.555,0.898,0.615,1.78,0.361,0.4,1.11,1.27
0.425,0.917,0.512,LHNLSYQLEAE [PKP2_Y616],0.517,0.605,0.615,1.45,1.37,0.699,0.81,0.483,1.12,0.393,0.646,1.36,0.934
0.665,0.733,0.627,FSQNICIQNRN [PKP2_Y631_Y631C_YF],0.388,0.535,0.524,0.903,0.841,0.392,0.608,0.395,0.766,0.384,0.44,0.719,0.584
0.739,0.896,0.752,IIWDSYTTNEM [GNB4_Y85_K89E],0.411,0.705,0.795,1.43,1.39,0.54,0.787,0.678,1.48,0.747,0.57,0.829,0.903
0.759,1.01,0.641,FLAAIYPTVGQ [NF1_Y2508_T2507I_YF],0.406,0.382,0.358,0.943,0.798,0.477,0.58,0.473,0.724,0.39,0.442,0.389,0.583
